B1: Hairpin Ribozyme (parent)
chain: GUCCUCUUUCACGUGCGCGUGAAAGAGAGAAGUGAACCAGAGAAACACACGUUGUGGUAUAUUACCUGGUA

This is an account of results in the RNAGym collection of RNA variant scans (doi:10.7554/elife.80360).

The variants in this series derive from B1. The series can be described thus: self-cleavage, relative activity (ratio to wild type); higher = more cleavage; co-transcriptional.
For the variant G27U G40C, the self-cleavage came to 0.0532.

As for A26C A39C, the self-cleavage stood at 0.47.

With A26C A39U, the self-cleavage came to 0.303.

Take A26C A28U: the self-cleavage was determined as 0.291.

For the variant A26C A49C, the self-cleavage came out at 0.218.

Turning to G27U C38U, the self-cleavage came to 0.157.

With A28C G57A, the self-cleavage amounted to 0.119.

A28C U67G: the self-cleavage stood at 0.184.

On to A28C U67A, for which the self-cleavage is 0.135.

As to G27A U58C, the self-cleavage is 0.516.

Regarding A26G A44U, the self-cleavage was 0.103.

Consider G27A A64C, for which the self-cleavage was found to be 0.189.

Take A26U G27U: the self-cleavage was 0.0812.

For A28C A47G, the self-cleavage was determined as 0.0559.

As to A28C A47C, the self-cleavage came to 0.0848.

With G27U A31G, the self-cleavage was 0.164.

On to G27U C50A, for which the self-cleavage was 0.155.

On to A26C U67G, for which the self-cleavage stood at 0.196.

A26G A71U: the self-cleavage worked out at 0.823.

Turning to A26G A71G, the self-cleavage was found to be 0.935.

As to A26U U58C, the self-cleavage came to 0.657.

Turning to A26U G42U, the self-cleavage amounted to 0.173.

With A26U G42C, the self-cleavage was 0.139.

G27U A30G: the self-cleavage stood at 0.0852.

As to G27C A35U, the self-cleavage was 0.0854.

On to G27A G51C, for which the self-cleavage was 0.238.

As to G27A G40U, the self-cleavage is 0.179.

In the case of G27U A71C, the self-cleavage was 0.904.

In the case of G27U U63A, the self-cleavage was 0.0592.

As for G27U U63G, the self-cleavage amounted to 0.243.

With G27C G32A, the self-cleavage is 0.191.

For the variant G27C G32C, the self-cleavage stood at 0.13.

For the variant G27A A71U, the self-cleavage amounted to 0.28.

As for G27A A45U, the self-cleavage was determined as 0.201.

In the case of A26U A43C, the self-cleavage came to 0.098.

Consider G27C G51C, for which the self-cleavage is 0.135.

As to G27C G51U, the self-cleavage was 0.17.

With G27A G69A, the self-cleavage is 0.155.

On to A26G G54C, for which the self-cleavage came to 0.457.

Regarding G27A U53A, the self-cleavage turned out to be 0.371.

Take A26U C48U: the self-cleavage was found to be 0.0687.

Regarding G27C C48A, the self-cleavage was determined as 0.0978.

G27C C48G: the self-cleavage is 0.164.

Take G27U A41C: the self-cleavage is 0.423.

Consider A26G G29U, for which the self-cleavage worked out at 0.0885.

In the case of G27U C48A, the self-cleavage was 0.0902.

As to G27C A30U, the self-cleavage came out at 0.255.

As to A26U U70A, the self-cleavage was found to be 0.575.

On to A26U U70G, for which the self-cleavage is 0.397.

Regarding G27C A39U, the self-cleavage amounted to 0.0549.

For G27C A43U, the self-cleavage is 0.151.

Regarding G27C G42U, the self-cleavage came out at 0.172.

On to A26G A36G, for which the self-cleavage came to 0.769.

G27C G69U: the self-cleavage came out at 0.162.

As to G27U U52A, the self-cleavage turned out to be 0.354.

On to G27C G68U, for which the self-cleavage was 0.147.

In the case of A26G C37U, the self-cleavage turned out to be 0.602.

A26G C37G: the self-cleavage stood at 0.237.

On to G27C C66G, for which the self-cleavage was 0.156.

Take A28C G68C: the self-cleavage amounted to 0.309.

In the case of A26G G69U, the self-cleavage was found to be 0.204.

As for A26G G69C, the self-cleavage is 0.403.

Regarding G27U U58A, the self-cleavage stood at 0.153.

As for G27U U58G, the self-cleavage was 0.225.

Turning to A28C A61U, the self-cleavage came out at 0.272.

For the variant A26G G40A, the self-cleavage stood at 0.302.

With A26G G40C, the self-cleavage stood at 0.167.

Take A26U G54A: the self-cleavage was 0.318.

In the case of A26G G57A, the self-cleavage stood at 0.196.

A26G G57C: the self-cleavage was found to be 0.103.

With A26C G40U, the self-cleavage was 0.114.

With A26C G40C, the self-cleavage is 0.11.

In the case of A26U A49C, the self-cleavage amounted to 0.157.

Turning to G27A A41C, the self-cleavage stood at 0.602.

For the variant G27A A41U, the self-cleavage is 0.744.

With G27A A41G, the self-cleavage amounted to 0.261.

In the case of G25U G57U, the self-cleavage stood at 0.179.

With A26C G57C, the self-cleavage is 0.0672.

As to G27C G29C, the self-cleavage stood at 0.163.

In the case of G27A A44G, the self-cleavage stood at 0.0958.

For G27A G29C, the self-cleavage turned out to be 0.12.

Take G27U G29A: the self-cleavage amounted to 0.225.

As to G27U G29U, the self-cleavage worked out at 0.119.

In the case of G27U G29C, the self-cleavage was found to be 0.101.

With G27U U70A, the self-cleavage turned out to be 0.172.

Regarding A26G A61U, the self-cleavage is 0.281.

Regarding A28G A30C, the self-cleavage came out at 0.0631.

For the variant A28G A30G, the self-cleavage turned out to be 0.218.

With G27U U53A, the self-cleavage was found to be 0.111.

Regarding G27U U53C, the self-cleavage was found to be 0.398.

Take G25U U58A: the self-cleavage was 0.447.

Consider G25U U58C, for which the self-cleavage came out at 0.503.

In the case of G27U A43C, the self-cleavage stood at 0.0898.

Regarding G27U A43G, the self-cleavage was 0.169.

As for A26C G27C, the self-cleavage amounted to 0.197.

Consider A26C G27U, for which the self-cleavage came out at 0.0629.

Turning to A28C U52A, the self-cleavage was 0.492.

As for A26U A30C, the self-cleavage was determined as 0.205.

Turning to A28C U55G, the self-cleavage was 0.217.

With A28C U55C, the self-cleavage was determined as 0.216.

On to A28G, for which the self-cleavage stood at 1.12.

On to A28C, for which the self-cleavage came to 0.497.

Turning to G25U U55C, the self-cleavage amounted to 0.205.

For G27U U62A, the self-cleavage amounted to 0.137.

As to A26G G42A, the self-cleavage came out at 0.245.

For A26G G42U, the self-cleavage came to 0.371.

Regarding A26G G42C, the self-cleavage stood at 0.357.

For A26G A45U, the self-cleavage came out at 0.148.

On to A26C A59C, for which the self-cleavage amounted to 0.0674.

As to A26G G68U, the self-cleavage amounted to 0.131.

As to A28C A59U, the self-cleavage was 0.14.

On to A28C A59G, for which the self-cleavage came out at 0.117.

G27A G56A: the self-cleavage is 0.116.

On to A26C A35G, for which the self-cleavage stood at 0.529.

On to A26C A35U, for which the self-cleavage was 0.495.

Take G27U U33G: the self-cleavage is 0.145.

As for A26U U62A, the self-cleavage stood at 0.214.

A26U U62C: the self-cleavage was 0.192.

In the case of G27U A28C, the self-cleavage is 0.179.

On to A28C C38G, for which the self-cleavage came to 0.194.

Consider A28C C38U, for which the self-cleavage stood at 0.218.

Regarding A26G A47U, the self-cleavage was 0.152.

For the variant A26G A47C, the self-cleavage stood at 0.251.

As for A28C C48G, the self-cleavage was 0.128.

In the case of A26C G68A, the self-cleavage was determined as 0.117.

G27U A44U: the self-cleavage came out at 0.169.

As for G27A C37A, the self-cleavage stood at 0.219.

On to G27A C37U, for which the self-cleavage amounted to 0.32.

Turning to A26G A43G, the self-cleavage is 0.114.

Take A26G A43C: the self-cleavage stood at 0.11.

Take A26U A45C: the self-cleavage amounted to 0.223.

As to A26U C46U, the self-cleavage worked out at 0.11.

As for G27C C65G, the self-cleavage worked out at 0.152.

In the case of A26G U53A, the self-cleavage was determined as 0.814.

A26G U53C: the self-cleavage worked out at 0.565.

For the variant G25U U62G, the self-cleavage is 0.237.

Turning to G25U U62A, the self-cleavage turned out to be 0.114.

As to A26C G42C, the self-cleavage was 0.357.

For G27C C46U, the self-cleavage stood at 0.106.

Take G27C A31C: the self-cleavage stood at 0.131.

Consider G27C A31G, for which the self-cleavage was found to be 0.124.

For the variant A26U U52C, the self-cleavage amounted to 0.656.

As to A26U C50A, the self-cleavage is 0.209.

As to A26U C50G, the self-cleavage stood at 0.148.

On to G27A A35G, for which the self-cleavage worked out at 0.449.

As to G27A A35U, the self-cleavage was 0.261.

Consider A28C G42C, for which the self-cleavage worked out at 0.109.

Turning to A28C G42A, the self-cleavage came out at 0.29.

For A28C A41U, the self-cleavage was 1.12.

Regarding G27U A49C, the self-cleavage stood at 0.225.

With A26U A71U, the self-cleavage stood at 0.433.

For the variant A28C G56C, the self-cleavage amounted to 0.101.

As for G27U G32A, the self-cleavage worked out at 0.104.

For G27U G32U, the self-cleavage was found to be 0.211.

For A26U U60G, the self-cleavage stood at 0.437.

For A26U U60C, the self-cleavage worked out at 0.898.

As to A26U U63G, the self-cleavage is 0.158.

For A26U G69C, the self-cleavage amounted to 0.247.

As for A26G C65U, the self-cleavage is 0.311.

Consider A26G C65G, for which the self-cleavage was 0.23.

Turning to A26C U33A, the self-cleavage was 0.23.

For A26C U33C, the self-cleavage amounted to 0.143.

On to A26C G54C, for which the self-cleavage was determined as 0.243.

Take A26C G56A: the self-cleavage turned out to be 0.163.

On to A26C G56C, for which the self-cleavage came out at 0.0943.

On to G27C A59C, for which the self-cleavage came to 0.104.

Consider G27C A59G, for which the self-cleavage was 0.0478.
